The assay deals with T1, DYRK1A (recombinant, N-terminally biotinylated) (UniProt Q13627 1-763, biotin on the N-terminus (sortase labelling with a synthetic biotin-LPETGG peptide onto the N-terminal glycine left after TEV cleavage)).
T1 construct: DYRK1A; also called Dual-specificity Tyrosine Phosphorylation-regulated Kinase 1 A; biotinylated DYRK1A; not shown: GST, N-terminal, cleaved; biotin-LPETGG peptide (sortase-ligated), N-terminal, kept
Put plainly: BLI; Octet-RED96e; 200 nM biotinylated DYRK1A loaded on streptavidin biosensor tips, dipped into FAM53C analyte at varied concentrations; 25 mM Tris pH 8.0, 150 mM NaCl, 1 mM DTT, 2 mg/mL BSA, 0.2% Tween; double reference-subtracted; rates from a 1:1 model, KD from steady-state analysis. The note with it: both partners purified.

What is called Kd is the free concentration of one partner at which half of the binding sites on the other are occupied at equilibrium, for simple one-to-one binding.

B1: FAM53C (recombinant) (natural protein, UniProt Q9NYF3 1-392, looked up)
chain: MITLITEQLQKQTLDELKCTRFSISLPLPDHADISNCGNSFQLVSEGASWRGLPHCSCAEFQDSLNFSYHPSGLSLHLRPPSRGNSPKEQPFSQVLRPEPPDPEKLPVPPAPPSKRHCRSLSVPVDLSRWQPVWRPAPSKLWTPIKHRGSGGGGGPQVPHQSPPKRVSSLRFLQAPSASSQCAPAHRPYSPPFFSLALAQDSSRPCAASPQSGSWESDAESLSPCPPQRRFSLSPSLGPQASRFLPSARSSPASSPELPWRPRGLRNLPRSRSQPCDLDARKTGVKRRHEEDPRRLRPSLDFDKMNQKPYSGGLCLQETAREGSSISPPWFMACSPPPLSASCSPTGGSSQVLSESEEEEEGAVRWGRQALSKRTLCQRDFGDLDLNLIEEN
notes: FAM53C; also called C5ORF6; source: E. coli BL21 (DE3), purified (Ni-NTA, TEV cleavage, Q Sepharose, Superdex 75)
As to B1, the dissociation constant (Kd) turned out to be 3.3 ± 0.5 mM.

For the origin of these results see PMC13132546, “The FAM53C/DYRK1A axis regulates the G1/S transition of the cell cycle” (eLife, 2026).
